# Read-outs that look alike come from different tables or passages of the source.
# Legend:
# [1] = Shelf life in radiolabeling buffer at room temperature (iTLC); format: physicochemical; details: radiolabeling buffer (0.15 M NaOAc, pH 4.7), up to 7 days, iTLC-SG, gamma counter
# Protocol: Radiolabeling was performed by adding up to 200 MBq of the ^153Sm radiolabeling solution to 20 nmol of the DOTA-TATE precursor dissolved in 0.15 M NaOAc buffer (pH 4.7) in a total reaction volume of 1 mL. The reaction vial was placed in a Thermomixer C (Eppendorf) to stir (500 rpm) and the mixture was heated to 95 °C for 15 min. After incubation, the radiolabeling yield was evaluated using thin-layer chromatography. An amount of 1–2 µL of the reaction mixture was spotted on a glass microfiber chromatography paper strip impregnated with silica gel (iTLC-SG, Agilent Technologies, Diegem, Belgium) that was eluted with a 0.5 M citrate solution (pH 5.5). After elution, the TLC papers were cut in half and the activity of the bottom and top part of the TLC paper was counted for 2 min each using an automated gamma counter.
# After 1 h, 3 days, 5 days and 7 days, a 5 µL sample was spotted on the TLC system described above to identify the intact fraction.
# [2] = Ex vivo biodistribution in CA20948 xenograft mice; details: mouse, iv
# Protocol: Quantification of activity was performed with an automated gamma counter equipped with a 3-in NaI(Tl) detector coupled to a multichannel analyzer (2480 Wizard^2, Perkin Elmer, Zaventem, Belgium). The results were corrected for background signal, physical decay during counting and detector dead time.
# Male NMRI nude mice (between 8 and 15 weeks old) were anesthetized with 2.5% isoflurane in O2 at a flow rate of 0.2 L min^−1 and subcutaneously injected on the right shoulder with 1 × 10^6 CA20948 cells resuspended in PBS with 30% matrigel®. Tumor dimensions were measured two or three times per week and volume was calculated as length × width × height. Mice were sacrificed if the tumor volume exceeded 600 mm^3 or if more than 10% of the original body weight was lost.
# Additionally, similar biodistribution studies were performed with free (unlabeled) [^153Sm]SmCl3 to identify the organs with ^153Sm accumulation in case of release from the complex. […] The mice were sacrificed by an overdose pentobarbital (200 µL of 60 mg/mL) 1, 4, 24 and 72 h post-injection (p.i.) (n = 3–4 per time point). Blood was collected via cardiac puncture. Organs of interest were collected in tared tubes and weighed. The activity in the different organs was measured in the gamma counter. For the calculation of the total activity in the blood, bone and muscle, the masses were assumed to be, respectively, 7, 12 and 40% of the total body mass. Data were expressed as a percentage of injected activity (%IA) and standardized uptake value (SUV). %IA was calculated as (counts per min (cpm) in organ)/(IA converted to cpm) × 100. SUV was calculated as (activity in cpm in organ/weight of organ in g)/(IA/total body weight in g).
# CA20948 cells = experiment: MTS viability assay; format: cell-based, rat; details: 4 h treatment, MTS after 4 days, relative to untreated cells, mean ± SD
# Protocol: Rat pancreatic cancer cell line CA20948 was used given the somatostatin receptor 2 (SSTR2) overexpression as it is found in many human neuroendocrine tumors. Cells were grown in DMEM High Glucose and Pyruvate medium (Gibco 41966029) supplemented with 10% fetal bovine serum (Gibco 10270106) and 100 U/mL penicillin-streptomycin (Sigma-Aldrich P4333) and were maintained in a humidified incubator at 37 °C with 5% CO2 supply. All in vitro results were obtained from a minimum of three replicates per condition.
# A total of 10,000 cells were seeded per well into a 96-well plate (31,250 cells/cm²). […] After 4 h incubation at 37 °C in 5% CO2, cells were washed and new medium was added. Then, after 4 days, MTS reagent was prepared according to the manufacturer’s instructions and added to the cells. Absorbance was measured at 490 nm using the BioTek Synergy H1 reader (Agilent). Cell viability was obtained as the ratio of the absorbance of a sample well to the average absorbance of untreated (0 MBq/mL) wells, after subtraction of the background signal of wells containing MTS reagent without cells. Statistical significance (p < 0.05) was determined using linear models.
# [3] = male, NMRI nude, bone, total radioactivity, read-out: Bone SUV
# [4] = male, NMRI nude, in vivo, total radioactivity, read-out: Excreted %IA
# [5] = male, NMRI nude, intestines, total radioactivity, read-out: Intestines %IA
# [6] = male, NMRI nude, kidneys, total radioactivity, read-out: Kidneys %IA
# [7] = male, NMRI nude, liver, total radioactivity, read-out: Liver %IA
# [8] = male, NMRI nude, muscle, total radioactivity, read-out: Muscle %IA
# [9] = male, NMRI nude, pancreas, total radioactivity, read-out: Pancreas %IA
# [10] = male, NMRI nude, pancreas, total radioactivity, read-out: Pancreas SUV
# [11] = male, NMRI nude, spleen, total radioactivity, read-out: Spleen SUV
# [12] = male, NMRI nude, stomach, total radioactivity, read-out: Stomach %IA
# [13] = male, NMRI nude, tumor, total radioactivity, read-out: Tumor %IA
structure (smiles),measurement,setting,value
"C[C@@H](O)[C@H](NC(=O)[C@@H]1CSSC[C@H](NC(=O)[C@@H](Cc2ccccc2)NC(=O)CN2CCN(CC(=O)O)CCN(CC(=O)O)CCN(CC(=O)O)CC2)C(=O)N[C@@H](Cc2ccc(O)cc2)C(=O)N[C@H](Cc2c[nH]c3ccccc23)C(=O)N[C@@H](CCCCN)C(=O)N[C@@H]([C@@H](C)O)C(=O)N1)C(=O)O [[^153Sm]Sm-DOTA-TATE, metal not drawn]",radiochemical purity (intact fraction),[1],> 98%
same,SUV at 1 h,"[2]; male, NMRI nude, blood, total radioactivity, read-out: Blood SUV",0.1 SUV
same,tissue uptake dose at 4 h,"[2]; male, NMRI nude, bone, total radioactivity, read-out: Bone %IA",0.5 ± 0.1 %ID
same,SUV at 1 h,[2]; [3],0.1 SUV
same,SUV at 4 h,[2]; [3],0.1 SUV
same,tissue uptake dose at 1 h,[2]; [4],80 ± 4.4 %ID
same,tissue uptake dose at 4 h,[2]; [4],83 ± 3.5 %ID
same,tissue uptake dose at 24 h,[2]; [4],94.1 ± 3.6 %ID
same,tissue uptake dose at 72 h,[2]; [4],96.6 ± 1.7 %ID
same,tissue uptake dose at 4 h,[2]; [5],4.4 ± 1.5 %ID
same,tissue uptake dose at 72 h,[2]; [5],0.1 %ID
same,SUV at 72 h,"[2]; male, NMRI nude, kidneys, total radioactivity",0.1 SUV
same,tissue uptake dose at 4 h,[2]; [6],2.4 ± 0.6 %ID
same,tissue uptake dose at 72 h,[2]; [6],0.1 %ID
same,SUV at 24 h,"[2]; male, NMRI nude, kidneys, total radioactivity, read-out: Kidneys SUV",0.3 ± 0.1 SUV
same,tissue uptake dose at 1 h,[2]; [7],0.4 ± 0.1 %ID
same,tissue uptake dose at 24 h,[2]; [7],0.1 %ID
same,SUV at 1 h,"[2]; male, NMRI nude, liver, total radioactivity, read-out: Liver SUV",0.1 SUV
same,tissue uptake dose at 1 h,"[2]; male, NMRI nude, lungs, total radioactivity, read-out: Lungs %IA",0.1 %ID
same,SUV at 1 h,"[2]; male, NMRI nude, lungs, total radioactivity, read-out: Lungs SUV",0.1 SUV
same,tissue uptake dose at 1 h,[2]; [8],1 ± 0.4 %ID
same,tissue uptake dose at 24 h,[2]; [8],0.1 %ID
same,SUV at 4 h,"[2]; male, NMRI nude, muscle, total radioactivity, read-out: Muscle SUV",0.1 SUV
same,tissue uptake dose at 1 h,[2]; [9],1 ± 0.1 %ID
same,tissue uptake dose at 4 h,[2]; [9],0.4 ± 0.3 %ID
same,tissue uptake dose at 24 h,[2]; [9],0.1 %ID
same,SUV at 4 h,[2]; [10],0.6 ± 0.4 SUV
same,SUV at 24 h,[2]; [10],0.1 SUV
same,SUV at 1 h,[2]; [11],0.1 SUV
same,SUV at 4 h,[2]; [11],0.1 SUV
same,tissue uptake dose at 1 h,[2]; [12],0.7 ± 0.1 %ID
same,tissue uptake dose at 4 h,[2]; [12],1 ± 0.3 %ID
same,tissue uptake dose at 72 h,[2]; [12],0.1 %ID
same,tissue uptake dose at 4 h,[2]; [13],6.1 ± 3.7 %ID
same,tissue uptake dose at 24 h,[2]; [13],3.2 ± 2.9 %ID
same,tissue uptake dose at 72 h,[2]; [13],2.2 ± 1.6 %ID
same,SUV at 4 h,"[2]; male, NMRI nude, tumor, total radioactivity, read-out: Tumor SUV",4.4 ± 1.1 SUV
same,tissue uptake dose at 4 h,"[2]; male, NMRI nude, whole blood, total radioactivity, read-out: Blood %IA",0.1 %ID
same,tissue uptake dose at 24 h,"[2]; bone, total radioactivity, 24 h p.i., CA20948 tumor bearing male NMRI-nude mice, ~2-3 MBq i.v., mean ± SD, n = 3-4, read-out: Bone %IA",0.2 ± 0.1 %ID
same,tissue uptake dose at 72 h,"[2]; bone, total radioactivity, 72 h p.i., CA20948 tumor bearing male NMRI-nude mice, ~2-3 MBq i.v., mean ± SD, n = 3-4, read-out: Bone %IA",0.2 %ID
same,Blood %IA,[2]; in vivo,0.0 ± 0.0 %IA
same,Blood SUV,[2]; in vivo,0.0 ± 0.0
same,Bone %IA,[2]; in vivo,0.4 ± 0.0 %IA
same,Bone SUV,[2]; in vivo,0.0 ± 0.0
same,Brain %IA,[2]; in vivo,0.0 ± 0.0 %IA
same,Brain SUV,[2]; in vivo,0.0 ± 0.0
same,Heart %IA,[2]; in vivo,0.0 ± 0.0 %IA
same,Heart SUV,[2]; in vivo,0.0 ± 0.0
same,Liver SUV,[2]; in vivo,0.0 ± 0.0
same,Lungs %IA,[2]; in vivo,0.0 ± 0.0 %IA
same,Lungs SUV,[2]; in vivo,0.0 ± 0.0
same,Muscle %IA,[2]; in vivo,0.0 ± 0.0 %IA
same,Muscle SUV,[2]; in vivo,0.0 ± 0.0
same,Pancreas %IA,[2]; in vivo,0.0 ± 0.0 %IA
same,Pancreas SUV,[2]; in vivo,0.0 ± 0.0
same,Spleen %IA,[2]; in vivo,0.0 ± 0.0 %IA
same,Spleen SUV,[2]; in vivo,0.0 ± 0.0
same,tissue uptake dose at 1 h,"[2]; intestines, total radioactivity, 1 h p.i., CA20948 tumor bearing male NMRI-nude mice, ~2-3 MBq i.v., mean ± SD, n = 3-4, read-out: Intestines %IA",2 ± 0.3 %ID
same,tissue uptake dose at 24 h,"[2]; intestines, total radioactivity, 24 h p.i., CA20948 tumor bearing male NMRI-nude mice, ~2-3 MBq i.v., mean ± SD, n = 3-4, read-out: Intestines %IA",0.6 ± 0.2 %ID
same,tissue uptake dose at 1 h,"[2]; total radioactivity, 1 h p.i., CA20948 tumor bearing male NMRI-nude mice, ~2-3 MBq i.v., mean ± SD, n = 3-4, read-out: Tumor %IA",3.7 ± 2 %ID
same,tissue uptake dose at 24 h,"[2]; kidneys, total radioactivity, 24 h p.i., CA20948 tumor bearing male NMRI-nude mice, ~2-3 MBq i.v., mean ± SD, n = 3-4, read-out: Kidneys %IA",0.5 ± 0.2 %ID
same,tissue uptake dose at 4 h,"[2]; liver, total radioactivity, 4 h p.i., CA20948 tumor bearing male NMRI-nude mice, ~2-3 MBq i.v., mean ± SD, n = 3-4, read-out: Liver %IA",0.2 %ID
same,tissue uptake dose at 72 h,"[2]; liver, total radioactivity, 72 h p.i., CA20948 tumor bearing male NMRI-nude mice, ~2-3 MBq i.v., mean ± SD, n = 3-4, read-out: Liver %IA",0.2 %ID
same,SUV at 1 h,"[2]; muscle, total radioactivity, 1 h p.i., CA20948 tumor bearing male NMRI-nude mice, ~2-3 MBq i.v., mean ± SD, n = 3-4, read-out: Muscle SUV",0.2 ± 0.1 SUV
same,tissue uptake dose at 4 h,"[2]; muscle, total radioactivity, 4 h p.i., CA20948 tumor bearing male NMRI-nude mice, ~2-3 MBq i.v., mean ± SD, n = 3-4, read-out: Muscle %IA",0.4 ± 0.2 %ID
same,SUV at 1 h,"[2]; pancreas, total radioactivity, 1 h p.i., CA20948 tumor bearing male NMRI-nude mice, ~2-3 MBq i.v., mean ± SD, n = 3-4, read-out: Pancreas SUV",1.2 ± 0.2 SUV
same,tissue uptake dose at 24 h,"[2]; stomach, total radioactivity, 24 h p.i., CA20948 tumor bearing male NMRI-nude mice, ~2-3 MBq i.v., mean ± SD, n = 3-4, read-out: Stomach %IA",0.3 ± 0.2 %ID
same,tissue uptake dose at 1 h,"[2]; whole blood, total radioactivity, 1 h p.i., CA20948 tumor bearing male NMRI-nude mice, ~2-3 MBq i.v., mean ± SD, n = 3-4, read-out: Blood %IA",0.7 ± 0.2 %ID
same,cell viability,CA20948 cells; 1.25 MBq/mL,significantly lowered viability
same,"cell viability, reduced down to",CA20948 cells; lowest viability over 0-10 MBq/mL,48 ± 6%
